In patent US20240216425A1, “Engineered Macrophages for Cancer Immunotherapy” (The Trustees of the University of Pennsylvania, priority 2022, published 2024):
Entries after “also recorded” stand apart in the source; their conditions may differ. Read-outs that look alike come from different tables or passages of the source.

Assays:
[1] = tested on: B16 tumoroids; format: cell-based, mouse
Procedure: (§1) Tumoroids. To generate surfaces conducive to B16 tumoroid formation, 96-well plates (Greiner Bio-One 650161) were either coated with 70 μL of 2% agarose in water or PBS or, more commonly, treated for 20 min with 100 μL of anti-adherence rinsing solution (StemCell Technologies 07010). The wells were washed with PBS, and then blocked with 0.5-1% (w/v) bovine serum albumin (BSA, Sigma) 37° ° C. for 1 h. B16 were detached by brief trypsinization, resuspended in RPMI supplemented with 10% FBS, 1× non-essential amino acid solution (Gibco 11140050) and 1 mM sodium pyruvate (Gibco 11360070) at a concentration of 1×103 or 1×10^4 per mL, and added to passivated wells in a volume of 100 μL. […] For tumoroid disaggregation studies, EDTA and EGTA were added in PBS to obtain a final concentration of 2 mM, and in some cases magnesium sulphate was also added for a final concentration of 5 mM Mg2+. Latrunculin A (Invitrogen L12370) dissolved at 1 μM in DMSO was further diluted in PBS and added to obtain a final concentration of 1 μM. For phagocytosis versus growth studies, CellTracker Deep Red-labeled BMDMs and antibodies (final concentration 20 μg/mL anti-Tyrp1 and/or 20 μg/mL anti-CD47 or 10 μg/mL anti-SIRPα) or mouse serum (final concentration 1:200) were added 24 h later in a volume of 20 μL RPMI growth media with 120 ng/mL M-CSF. For myosin-II inhibition studies, 20 μM blebbistatin (MilliporeSigma 203389) or an equal volume of DMSO vehicle was added to B16 tumoroids for 1 h prior to addition of BMDMs. Tumoroids were imaged on the Olympus IX microscope with 20×/0.4 NA, 10×/0.3 NA, or 4×/0.13 NA objectives. Tumoroid areas were measured in Fiji/ImageJ after thresholding GFP fluorescence using built-in thresholding algorithms and manually adjusting the threshold as needed.

[2] = tested on: CD47 KO B16 tumoroids; assay: Immuno-tumoroid growth with bone marrow-derived macrophages; format: cell-based, mouse; details: for tumoroid elimination and macrophage clusters: macrophages pre-treated with cytokine (20 ng/mL, 48 h)
Procedure: Tumoroids. To generate surfaces conducive to B16 tumoroid formation, 96-well plates (Greiner Bio-One 650161) were either coated with 70 μL of 2% agarose in water or PBS or, more commonly, treated for 20 min with 100 μL of anti-adherence rinsing solution (StemCell Technologies 07010). The wells were washed with PBS, and then blocked with 0.5-1% (w/v) bovine serum albumin (BSA, Sigma) 37° ° C. for 1 h. B16 were detached by brief trypsinization, resuspended in RPMI supplemented with 10% FBS, 1× non-essential amino acid solution (Gibco 11140050) and 1 mM sodium pyruvate (Gibco 11360070) at a concentration of 1×103 or 1×10^4 per mL, and added to passivated wells in a volume of 100 μL. A single aggregate of B16 cells formed in each well, typically within 12 h. For tumoroid disaggregation studies, EDTA and EGTA were added in PBS to obtain a final concentration of 2 mM, and in some cases magnesium sulphate was also added for a final concentration of 5 mM Mg2+. Latrunculin A (Invitrogen L12370) dissolved at 1 μM in DMSO was further diluted in PBS and added to obtain a final concentration of 1 μM. For phagocytosis versus growth studies, CellTracker Deep Red-labeled BMDMs and antibodies (final concentration 20 μg/mL anti-Tyrp1 and/or 20 μg/mL anti-CD47 or 10 μg/mL anti-SIRPα) or mouse serum (final concentration 1:200) were added 24 h later in a volume of 20 μL RPMI growth media with 120 ng/mL M-CSF. For myosin-II inhibition studies, 20 μM blebbistatin (MilliporeSigma 203389) or an equal volume of DMSO vehicle was added to B16 tumoroids for 1 h prior to addition of BMDMs. Tumoroids were imaged on the Olympus IX microscope with 20×/0.4 NA, 10×/0.3 NA, or 4×/0.13 NA objectives. Tumoroid areas were measured in Fiji/ImageJ after thresholding GFP fluorescence using built-in thresholding algorithms and manually adjusting the threshold as needed.
Statistical analysis and curve fitting. Statistical analyses and curve fitting were performed in Prism v8.4-v9.4 (GraphPad) and MATLAB R2020a (MathWorks). Details for each analysis are provided in figure legends, and exact p values are provided. […]

[3] = biological target: CD47 on B16-F10 mouse melanoma cells (also on RM-9 mouse prostate cancer cells) (mouse) (UniProt Q61735); assay: flow cytometry titration on B16 cells, secondary antibody AF647, median fluorescence fit to y=A*x/(K+x); apparent K on cells
[4] = biological target: Tyrp1 (tyrosinase-related protein 1) on B16-F10 mouse melanoma cells (mouse) (UniProt P07147); assay: as above
[5] = tested on: macrophages in CD47 KO tumoroids; assay: Macrophage clustering in tumoroids (entropy image analysis, radial profiles, cluster area); format: cell-based, mouse; details: 2 mM chelator added ~24 h after macrophages and anti-Tyrp1, read 3 h later
Procedure: as §1, with “For phagocytosis versus growth studies, CellTracker Deep Red-labeled BMDMs and antibodies (final concentration 20 μg/mL anti-Tyrp1 and/or 20 μg/mL anti-CD47 or 10 μg/mL anti-SIRPα) or mouse serum (final concentration 1:200) were added 24 h later in a volume of 20 μL RPMI growth media with 120 ng/mL M-CSF. For myosin-II inhibition studies, 20 μM blebbistatin (MilliporeSigma 203389) or an equal volume of DMSO vehicle was added to B16 tumoroids for 1 h prior to addition of BMDMs. Tumoroids were imaged on the Olympus IX microscope with 20×/0.4 NA, 10×/0.3 NA, or 4×/0.13 NA objectives.” left out

[6] = tested on: macrophage monocultures; assay: Macrophage monocultures on non-adhesive surfaces, clustering; format: cell-based, mouse; details: 20 ng/mL cytokine
Procedure: Bone marrow-derived macrophages (BMDMs). Bone marrow was harvested from donor mice, lysed with ACK buffer (Gibco A1049201) to deplete red blood cells, and cultured on Petri dishes for 7 days in IMDM (Gibco 12440053) supplemented with 10% FBS, 1% P/S, and 20 ng/ml recombinant mouse macrophage colony-stimulating factor (M-CSF, BioLegend 576406). Successful differentiation was confirmed by flow cytometry staining with antibodies against macrophage markers. Cytokine-primed BMDMs were cultured in RPMI growth media+20 ng/ml M-CSF+20 ng/mL IFNγ (BioLegend 575302) or 20 ng/ml IL-4 (BioLegend 574302) for 48 h prior to use in tumoroid assays or prior to analysis of protein expression by flow cytometry. […]
Entropy image analysis. Fluorescence images of CellTracker Deep Red-labeled macrophages were converted to binary images of black cells on a white background using the Otsu threshold algorithm in ImageJ. The number of dark pixels was determined from the image histogram, and the image was saved as a PNG file, which is a form of lossless file compression to determine the compressed file size as a measure of entropy. Random and structured images were generated and analyzed using the Python NumPy and PIL/Pillow packages, respectively.

[7] = 2 mM EDTA or EGTA, 1 μM Latrunculin A

Sequence of UniProt P07147 (P07147 25-537): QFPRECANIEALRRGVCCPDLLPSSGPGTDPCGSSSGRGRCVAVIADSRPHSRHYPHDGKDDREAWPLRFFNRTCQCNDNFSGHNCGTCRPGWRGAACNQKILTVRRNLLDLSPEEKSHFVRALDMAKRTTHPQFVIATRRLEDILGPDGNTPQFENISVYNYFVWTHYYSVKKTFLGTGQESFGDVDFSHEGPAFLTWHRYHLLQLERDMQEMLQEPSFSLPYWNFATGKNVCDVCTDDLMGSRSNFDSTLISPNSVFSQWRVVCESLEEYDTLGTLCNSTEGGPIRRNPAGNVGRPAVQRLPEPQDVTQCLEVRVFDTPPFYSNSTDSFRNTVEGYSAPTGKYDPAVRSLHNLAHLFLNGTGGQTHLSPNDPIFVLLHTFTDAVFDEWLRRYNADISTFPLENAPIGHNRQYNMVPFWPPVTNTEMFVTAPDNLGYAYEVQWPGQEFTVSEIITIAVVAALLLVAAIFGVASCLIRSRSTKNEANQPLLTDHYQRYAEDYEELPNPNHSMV
Sequence of UniProt Q61735 (Q61735 19-303): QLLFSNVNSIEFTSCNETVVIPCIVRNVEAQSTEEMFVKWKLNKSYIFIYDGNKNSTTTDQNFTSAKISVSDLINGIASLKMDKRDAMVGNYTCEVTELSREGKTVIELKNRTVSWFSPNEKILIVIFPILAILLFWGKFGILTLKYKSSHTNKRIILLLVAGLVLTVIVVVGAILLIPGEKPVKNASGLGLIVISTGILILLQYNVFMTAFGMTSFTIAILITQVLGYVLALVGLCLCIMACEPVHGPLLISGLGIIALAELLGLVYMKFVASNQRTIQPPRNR

Molecule: O=C(O)CN(CCOCCOCCN(CC(=O)O)CC(=O)O)CC(=O)O [EGTA]
- tumoroid projected area / B16 aggregates [1, 7]: did disrupt B16 aggregates; also recorded: rapid (<1 h) increase

Molecule: Cc1ccc2c(c1)C(=O)C1(O)CCN(c3ccccc3)C1=N2 (centres unmarked) [blebbistatin]
- tumoroid growth repression by macrophages ([2]; 20 μM): not affected

Molecule: anti-mouse CD47 clone MIAP301 (BioXCell BE0270) (antibody)
- Kd [3]: 25 nM

Molecule: anti-mouse/human Tyrp1 clone TA99 (BioXCell BE0151) (antibody)
- Kd [4]: 47 nM

Molecule: O=C(O)CN(CCN(CC(=O)O)CC(=O)O)CC(=O)O [EDTA]
- macrophage cluster projected area / disaggregation of macrophages [5]: rapid disaggregation of macrophages; also recorded: increases significantly
- tumoroid projected area / B16 aggregates [1]: rapid (<1 h) increase

Molecule: C/C1=C/C(=O)O[C@@H]2C[C@@H](CC[C@H](C)/C=C\C=C\CC1)O[C@@](O)([C@@H]1CSC(=O)N1)C2 [Latrunculin A]
- tumoroid projected area / B16 aggregates [1, 7]: rapid (<1 h) increase

B1: IFNγ: interferon-γ cytokine used to prime macrophages (BioLegend 575302) (protein, UniProt P01580 23-155, looked up)
Interferon gamma: HGTVIESLESLNNYFNSSGIDVEEKSLFLDIWRNWQKDGDMKILQSQIISFYLRLFEVLKDNQAISNNISVIESHLITTFFSNSKAKKDAFMSIAKFEVNNPQVQRQAFNELIRVVHQLLPESSLRKRKRSRC
- macrophage clustering in monoculture [6]: cluster
- tumoroid elimination and macrophage clusters [2]: promoted

B2: IL-4: interleukin-4 cytokine used to prime macrophages (BioLegend 574302) (protein, UniProt P07750 21-140, looked up)
Interleukin-4: HIHGCDKNHLREIIGILNEVTGEGTPCTEMDVPNVLTATKNTTESELVCRASKVLRIFYLKHGKTPCLKKNSSVLMELQRLFRAFRCLDSSISCTMNESKSTSLKDFLESLKSIMQMDYS
- macrophage clustering in monoculture [6]: disperse
- tumoroid elimination and macrophage clusters [2]: has the opposite effects and disperses macrophages
